# Patent US20050186197A1
# Positions of bridges follow the written chain, without caps; N, C: chain ends. No end group written: not given here.
# Legend:
# TEM-1 β-lactamase = TEM-1 β-lactamase (UniProt P62593); test: β-lactamase inhibition assay (cephalosporin C)
# [1] = biological target: class C β-lactamase P99 from Enterobacter cloacae (Enterobacter cloacae) (UniProt P05364); test: β-lactamase inhibition assay (cephalosporin C)
# [2] = biological target: T1, TEM-1 β-lactamase, P62593; test: ratio of Ki values, β-lactamase inhibition assay
# T1 chain: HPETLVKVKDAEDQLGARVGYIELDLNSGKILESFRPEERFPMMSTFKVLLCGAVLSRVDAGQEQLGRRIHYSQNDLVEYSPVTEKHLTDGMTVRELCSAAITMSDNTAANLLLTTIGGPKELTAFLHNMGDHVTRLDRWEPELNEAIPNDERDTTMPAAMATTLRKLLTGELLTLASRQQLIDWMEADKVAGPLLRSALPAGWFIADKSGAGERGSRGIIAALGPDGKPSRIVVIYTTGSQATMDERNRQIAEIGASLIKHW
# [3] = biological target: T1, TEM-1 β-lactamase, P62593; test: β-lactamase inhibition assay (cephalosporin C), Ki from IC50 by Cheng-Prusoff
# [4] = biological target: T2, class C β-lactamase P99 from Enterobacter cloacae (Enterobacter cloacae), P05364; test: as above
# T2 sequence (P05364 21-381 limits assumed): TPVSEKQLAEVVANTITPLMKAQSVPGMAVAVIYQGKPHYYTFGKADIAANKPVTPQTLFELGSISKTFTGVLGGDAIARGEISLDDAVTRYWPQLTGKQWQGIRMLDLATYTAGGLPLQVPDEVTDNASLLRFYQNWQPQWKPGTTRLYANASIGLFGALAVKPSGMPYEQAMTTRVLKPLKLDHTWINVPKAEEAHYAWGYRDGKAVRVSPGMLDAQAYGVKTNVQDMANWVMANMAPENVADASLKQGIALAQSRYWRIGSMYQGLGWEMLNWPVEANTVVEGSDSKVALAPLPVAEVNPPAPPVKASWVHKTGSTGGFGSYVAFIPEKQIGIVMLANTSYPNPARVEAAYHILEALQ
# [5] = biological target: T2, class C β-lactamase P99 from …; test: ratio of Ki values, β-lactamase inhibition assay
# [6] = biological target: T1, TEM-1 β-lactamase, P62593; test: β-lactamase inhibition assay, disulfide-bonded peptide
molecule,measurement,setting,value
RR-NH2 (peptide),Ki,TEM-1 β-lactamase,> 2000 µM
same,Ki,[1],> 2000 µM
RRGHYY-NH2 [RRGHYY-NH2],fold improvement in affinity relative to disulfide bonded …-NH2,[2],25 fold
same,fold improvement in affinity relative to …-NH2,[2],2 fold
same,Ki,[3],136 µM
same,Ki,[4],140 µM
HSAYSDTRRGDYG-NH2 […-NH2],fold increase in binding affinity relative to the cysteine peptide …-NH2,[2],10 fold
same,Ki,[3],298 µM
same,Ki,[4],254 µM
AAGHYY-NH2 [AAGHYY-NH2],fold increase in Ki relative to RRGHYY-NH2,[2],3 fold
same,fold increase in Ki relative to RRGHYY-NH2,[5],3 fold
same,Ki,[3],438 µM
same,Ki,[4],468 µM
HSACSDTRRGDCG-NH2 (disulfide 4-12 (inferred)) […-NH2 (disulfide-bonded soluble peptide)],Ki,[6],3500 µM
